Measured values reported in patent publication US20040077017A1.

Target: Fc3(1) (human) (UniProt P01860)
Test: Biacore 2000 SPR, Fc3(1) immobilized on CM5 chip, 25 C, HBS

Kd: 0.09 µM
Substance: unlabeled, wild-type Z-ABD (from UniProt P19909 254-299) (designed binder)
